We go through 1 substance from patent US6051396.

Series [1] concerns the target T1, trpE-RB19-22 fusion (Homo sapiens) (UniProt P06400).
T1 sequence: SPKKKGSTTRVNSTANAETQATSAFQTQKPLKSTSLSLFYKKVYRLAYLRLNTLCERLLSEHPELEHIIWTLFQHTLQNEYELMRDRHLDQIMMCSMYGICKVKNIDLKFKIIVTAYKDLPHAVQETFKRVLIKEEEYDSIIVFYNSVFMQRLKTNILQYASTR
The settings on record: Southwestern blot; stated as RB19-27 having 20-fold higher affinity; 50 mM NaCl, pH 7.0, room temperature.

The target of series [2] is T2, trpE-RB23-27 fusion (Homo sapiens) (UniProt P06400).
T2 sequence: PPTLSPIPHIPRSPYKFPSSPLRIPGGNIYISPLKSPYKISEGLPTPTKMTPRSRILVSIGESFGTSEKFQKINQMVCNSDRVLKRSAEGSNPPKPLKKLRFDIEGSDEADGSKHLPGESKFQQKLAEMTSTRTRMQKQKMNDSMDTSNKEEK
The settings on record: Southwestern blot; stated as RB19-27 having 20-fold higher affinity; 50 mM NaCl, pH 7.0, room temperature.

The target of series [3] is T3, trpE-RB19-27 fusion (Homo sapiens) (UniProt P06400).
T3 sequence: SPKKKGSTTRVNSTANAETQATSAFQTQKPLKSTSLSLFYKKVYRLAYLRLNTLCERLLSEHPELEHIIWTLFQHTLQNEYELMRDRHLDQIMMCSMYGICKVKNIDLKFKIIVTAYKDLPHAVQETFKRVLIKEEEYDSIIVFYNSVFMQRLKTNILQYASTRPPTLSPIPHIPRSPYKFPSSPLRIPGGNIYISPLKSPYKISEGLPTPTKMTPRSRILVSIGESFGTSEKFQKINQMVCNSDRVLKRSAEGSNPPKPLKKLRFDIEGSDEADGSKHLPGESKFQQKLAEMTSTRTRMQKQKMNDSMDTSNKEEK
The following applies: Southwestern blot; 20-fold higher affinity than either subregion; 50 mM NaCl, pH 7.0, room temperature.

In the case of “pGEM1 plasmid DNA linearized by EcoRI, random-primed probe”, the binding signal (fraction of RB19-27) in series [1] and in series [2] was 0.05 each time. Besides, the binding signal (fold vs RB19-22 or RB23-27) in series [3] turned out to be 20.
